Laboratory results as given in paper PMC4637274.

Key:
[1] = molecular target: 16055 gp140 NFL2P (HIV-1 (16055)); test: negative-stain EM of unliganded trimers
[2] = molecular target: BG505 gp140 NFL2P (HIV-1 (BG505)); test: SEC + native gel or EMSA
[3] = molecular target: BG505 gp140 NFL2P (HIV-1 (BG505)); test: negative-stain EM of unliganded trimers
[4] = molecular target: JRFL gp140 NFL2P (HIV-1 (JRFL)); test: SEC + native gel or EMSA
[5] = molecular target: JRFL gp140 NFL2P (HIV-1 (JRFL)); test: negative-stain EM of unliganded trimers

Substance: 16055 gp140 NFL2P
- stoichiometry N [1]: 3

Substance: BG505 gp140 NFL2P
- stoichiometry N [2]: 3
- stoichiometry N [3]: 3

Substance: JRFL gp140 NFL2P
- stoichiometry N [4]: 3
- stoichiometry N [5]: 3
